The values that follow come from paper PMC7755716.

This data set deals with DtxR (Corynebacterium glutamicum (derived from KCTC No. 1445)). As to the kind of experiment: EMSA. As to conditions: 150 uM Mn2+, 5 mM Mg2+, 50 mM Tris-HCl pH 7.5, 5 mM MgCl2, 40 mM KCl, 5% glycerol, 1 mM DTT, 150 uM MnCl2, 30 min at room temperature, 200 ng DNA, 0-350 ng DtxR dimer in 10 ul, 15% …. (In EMSA bound probe runs differently from free probe, usually more slowly.)

Regarding “NCgl1959 regulatory region, C-14G (399 bp)”, the binding signal (% of wild-type affinity) is 40.
Take “NCgl1959 regulatory region, wild type (399 bp)”: where the note is “reference”, the binding signal (% of wild-type affinity) was found to be 100.
